# Results taken from patent publication US20060210549.
# How the values were obtained:
# [1] = tested on: P1, H2N-GPQGIAGQR(GPO)4GG-OH
# [2] = tested on: lipopeptide LP1, CH3(CH2)16COHN-GPQGIAGQR(GPO)4GG-OH
# recombinant form of human MMP-9, containing the catalytic and fibronectin domains of the enzyme, sequence (chain, as listed by the source): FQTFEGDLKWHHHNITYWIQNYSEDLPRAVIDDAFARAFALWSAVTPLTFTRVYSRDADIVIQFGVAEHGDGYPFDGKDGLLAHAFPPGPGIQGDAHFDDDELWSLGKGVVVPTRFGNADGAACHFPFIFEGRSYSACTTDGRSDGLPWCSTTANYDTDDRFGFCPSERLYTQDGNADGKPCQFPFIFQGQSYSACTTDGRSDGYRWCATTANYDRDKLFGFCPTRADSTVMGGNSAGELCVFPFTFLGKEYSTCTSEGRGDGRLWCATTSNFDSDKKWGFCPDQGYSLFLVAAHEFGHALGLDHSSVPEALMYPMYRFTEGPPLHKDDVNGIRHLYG
# trypsin, sequence (P00760 24-246): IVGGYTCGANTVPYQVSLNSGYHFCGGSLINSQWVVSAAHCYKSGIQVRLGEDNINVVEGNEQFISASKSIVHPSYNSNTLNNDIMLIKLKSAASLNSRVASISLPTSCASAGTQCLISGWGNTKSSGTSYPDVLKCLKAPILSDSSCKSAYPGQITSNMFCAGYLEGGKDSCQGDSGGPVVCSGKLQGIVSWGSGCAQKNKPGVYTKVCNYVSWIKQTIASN
Substance,"cleavage of the peptide, products analyzed by RP-HPLC [1]","cleavage of the lipopeptide, products analyzed by RP-HPLC [2]","release of encapsulated carboxyfluorescein from LP1/DSPC liposomes (fluorescence at 518 nm, five hours) [2]",release of encapsulated carboxyfluorescein from LP1/DSPC liposomes (fluorescence at 518 nm) [2]
"recombinant form of human MMP-9, containing the catalytic and fibronectin domains of the enzyme",The peptide P1 (Rpn=0.04) was efficiently cleaved by the target enzyme MMP-9,"the lipopeptide LP1 (Rpn=0.11) was partially cleaved by MMP-9 (in 2 hours, FIG. 2A)","In five hours, about 55% of the encapsulated dye was found to be released",
trypsin,"efficiently cleaved by the target enzyme MMP-9 as well as by a non-specific proteolytic enzyme, trypsin",,,"trypsin, once again failed to release the dye from the liposome"
